Measured values published in publication PMC8643638 (Nucleic Acids Research, 2021).
Substitutions are numbered along the chain they refer to. Numbers in names are those of the source.

T1: Sis0811Δ268 (Saccharolobus islandicus, UniProt F0NH89)
T1 sequence (F0NH89 1-268): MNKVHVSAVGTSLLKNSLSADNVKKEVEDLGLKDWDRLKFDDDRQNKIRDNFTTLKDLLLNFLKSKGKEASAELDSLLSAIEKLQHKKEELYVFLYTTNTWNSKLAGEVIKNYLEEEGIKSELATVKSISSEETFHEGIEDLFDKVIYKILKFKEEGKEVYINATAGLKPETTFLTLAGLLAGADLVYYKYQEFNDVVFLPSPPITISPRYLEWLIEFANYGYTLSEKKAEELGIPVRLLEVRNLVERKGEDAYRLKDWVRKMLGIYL

T2: Sis0811 (SisRN0811), full length (Saccharolobus islandicus, UniProt F0NH89)
T2 sequence (F0NH89 1-322): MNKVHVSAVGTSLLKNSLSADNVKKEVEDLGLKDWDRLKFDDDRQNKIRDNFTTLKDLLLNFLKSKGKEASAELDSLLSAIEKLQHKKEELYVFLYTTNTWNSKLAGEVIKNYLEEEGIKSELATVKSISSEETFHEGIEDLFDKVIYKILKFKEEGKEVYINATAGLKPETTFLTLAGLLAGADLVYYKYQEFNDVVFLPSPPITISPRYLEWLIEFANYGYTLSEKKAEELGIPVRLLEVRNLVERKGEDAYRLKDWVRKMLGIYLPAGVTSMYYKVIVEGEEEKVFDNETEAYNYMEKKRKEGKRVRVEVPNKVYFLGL

B1: Sis0811 full length (standalone ring nuclease from Sulfolobus islandicus REY15A) (enzyme, UniProt F0NH89 1-322, looked up)
chain: T2 sequence (F0NH89 1-322)
B2: Sis0811_(Δ268) (truncated Sis0811 lacking the C-terminal 54 residues) (domain or fragment, Sulfolobus islandicus REY15A, UniProt F0NH89 1-268, looked up)
chain: T1 sequence (F0NH89 1-268)
B3: Sis0811_(Δ268)(S12G/K169G) (domain or fragment, Sulfolobus islandicus REY15A, UniProt F0NH89 1-268, looked up)
chain: T1 sequence (F0NH89 1-268) with S12G, K169G
B4: Sis0811_(Δ268)(S12A) (domain or fragment, Sulfolobus islandicus REY15A, UniProt F0NH89 1-268, looked up)
chain: T1 sequence (F0NH89 1-268) with S12A

Legend:
[1] = target: T1, Sis0811Δ268; test: isothermal titration calorimetry, single-site model; format: binding
[2] = target: T2, Sis0811 (SisRN0811), full length; test: as above; format: binding
[3] = target: the molecule itself; test: SEC-MALS
[4] = target: the molecule itself; test: crystal structure

Row | Molecule | stoichiometry N [3] | binding result [4] | further results
1 | Nc1ncnc2c1ncn2[C@@H]1O[C@@H]2COP(=O)(O)O[C@H]3[C@@H](O)[C@H](n4cnc5c(N)ncnc54)O[C@@H]3COP(=O)(O)O[C@H]3[C@@H](O)[C@H](n4cnc5c(N)ncnc54)O[C@@H]3COP(=O)(O)O[C@H]3[C@@H](O)[C@H](n4cnc5c(N)ncnc54)O[C@@H]3COP(=O)(O)O[C@H]2[C@H]1O [cA4] |  |  | Kd [1]: 5.9 nM; Kd [2]: 9.1 nM
2 | B1 | 2 |  | 
3 | B2 | 2 |  | 
4 | B3 |  | binds | 
5 | B4 |  | binds | 
